Key:
Assay in all cases: cell-based or functional assay
[1] = molecular target: rat MMP13 (activated) (rat) (UniProt P23097)
[2] = molecular target: human MMP13 (activated) (human) (UniProt P45452)
[3] = molecular target: dog MMP13 (activated) (dog)
[4] = molecular target: bovine MMP13 (activated) (bovine) (UniProt O77656)
[5] = molecular target: cynomolgus MMP13 (activated) (cynomolgus)

IC50, rat fluorogenic peptide assay [1]: 400 pM
IC50, human collagenolytic assay [2]: 400 pM
IC50, human fluorogenic collagen assay [2]: 2400 pM
IC50, human fluorogenic peptide assay [2]: 500 pM
IC50, dog fluorogenic peptide assay [3]: 900 pM
IC50, bovine fluorogenic peptide assay [4]: 1100 pM
IC50, cyno fluorogenic peptide assay [5]: 400 pM
Substance: TIMP-2 (from UniProt P16035 27-220)
